Assay: soluble fraction after stress (log2 fold change); higher = more stays soluble; pooled small domains, quantitative proteomics
Conditions: stress: pH 4
In short: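 Aggregation propensity is estimated from the fold change in each domain's soluble amount after acid stress. Pooled small-domain libraries were stressed at pH 4, and higher log2 values mean more stayed soluble.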

Row | Sequence | soluble fraction (log2)
1 | HMAERVWASLLEIKNAVAIEDAKTLEDVDNSEKIAEERIAALNDDAKHPLAIAFIGKLRQDIAEKKIELA | -1.19
2 | HMSVPEAAERAIDVAQMRRALGELSPEQQRVLELAYFGGLTRQEIARATGTPLGTVHTRARLGLQNLRARL | -0.0378
3 | HMQERQREGFVQQLRGKYSGQVVMRLFPELQGKALGEFMRKFEAQWEDHEAVLAAMEAHEIESRLKVFK | -1.2
4 | HMDTQKYDLNDDGRFDVQDVTYLQIKIAGDGELTDNQKKIADYNNDGKIDVQDVTSAQMLIS | -0.724
5 | HMGQGSAFVYYEVLPKQTEYSLTRKLGLGYADLLSLNPQLARGLQAGMVLKIPRDKAGNLEVKNDLILE | 0.165
6 | HMALWFDEWKKYQDTIASADLLPDKAERDALIAQAEDRFNYWMDIYPRSASLNHSFDDLYEEHRRKIE | -1.33
7 | HMRKYKIKEELPDNIYKIIQDNPGIVQKDIYDILGREYQQNISSYIYSMDKNGVIKRDKHGNSYKLYL | -1.01
8 | HMSDHKNANFTKVVKVAQELLQDEDDKAGITPTLIEEKISAVLAMNRRWAEGLDRAAVADELIRRFSIW | -0.951
9 | HMSWAAQVVDKMTNDQLIKSLNEIVNTGKQLGLDITVEQNGDKNFIMTVKDSKGNVQLVTPIG | -0.937
10 | HMRTLRENIMDYFKQQTIIQKSSVILLPMSKRQLADYFGVQRPSLFRELKKLKEEGIIEINNRTITIK | -0.0293
11 | HMSLHSITIPQEFIGAVIGPGGKVIQEIQKQTGTTITITEKDNKGYVDIFGEDKGALDSALARIKEIVAIP | -0.277
12 | HMDPGPVLISAQVLDDLEAIRRDGSSNMLDWPAVARLAEVMGMDRTAAWVRTHHREYSAGIFRGFASD | -0.744
13 | HMPRKYFPFYFTFRETAQTMPPRLRAVFYEAIIEYGTTGKEPTLPKSIAGYWPLVKPTLDSAKAHYDAG | -0.0316
14 | HMETKKEIIEAINELEEKYRNAIYLTSIEKLSYEETSKILGQSLSNTKNLIHRGKQQLRKILIKK | -0.37
15 | HMKDLIGEAKAKELALGHAKLSASDVTFIHVELDWENGRRVYDVEFYSGAKEYDYEIDAKTGEIVSFDY | 0.00222
16 | HMDIVIPIQVKNVSSGEVLDFPSIRAAARDLKFPKTTISLGVRYAGEKAYKGFVMRYRSDDPWPIVQES | 0.103
17 | HMTEDTPIIVERVVADIDENVVAIVRKFKDAFKSITAQREIKKKLRSILWVNYQIKDQEVFDKAYQYIEMY | -0.784
18 | HMSKPVYILINKPKGFLASSTDKKVKKSVNDLINISNLNKIYPFDNMGRTSSGLLLLSNDLYFKKHFKDKI | 0.209
19 | HMDDGALQIRLGPQALQQRLDKLGYSLNKEDLDLVYQYFLHSADSKGAVYDQELRELMGEAGVE | -0.607
20 | HMDEVHYLADKERGTTWEEILIHADRDIKFLSLSATINNKNEFLEWLVSLRGTTSLIHSSTRPIPLEI | -0.682
21 | HMGKRKDFTYTGNYFSEYKNQTFPSLSSFLKLVGKYENYGTIKRRVRFGWDIDEAILRENIN | -0.231
22 | HMLKGTVKWFNESKGFGFIEQEEGKDVFVHYSAITGSGFKTLNEGDKVQFEIVDGPKGPAAANVSK | -0.927
23 | HMKTSVGSKMMVMANNLSIRKSANLLSEKLADLSKGDMVEYISSTNGWNKVRYNGYVGYVSSYYLKDTGEV | 0.375
24 | HMTTYSVDLGDIRAVADSDGKLVELTLHAAVTTHYSHSELADRLNLAFTALREEAQADYETRY | -0.0597
25 | HMLKPIHKDWSPNGDAKEILLKAGITEEFIQKELPEFIMYWSERNEESDIWNSKFIAHIRRRWGRFS | -1.23

Row | Sequence | soluble fraction (log2)
26 | HMFYNSSDNAYKILEINKSATVDEIKAAYRKMAKKYHPDKVIHLGQEHQKGAEEKFRQVQEAYEELQKERG | 0.297
27 | HMTAQASDIEKVLQVIETLGFRGHTLPGENRTAIGVTGNRGSIDPAHFENLPGVADAIRVTKPY | -0.292
28 | HMESLNDRIKLVFKDSGLTQMDISKRLNIAQSSVSGIISGKANPSKRTLADIADRFDVNLEWLRDGTGPMK | 0.199
29 | HMAGPGAEVVDRLIAVLTGERPATAADQVLLSILKGLGIGGVVLPSERTGLGWSGLYQRVKEITDMN | -1.21
30 | HMITNEDINIKKLLVVMKDTPLSANEIMDKLNIKSKETLRNMYLDPAIKKGLINLTIPDKPTSKNQKYYK | 0.22
31 | HMATEPLQPRVEVLGSTLATTNGARIVGVYDMSGREVSATQLSKGVYIVKVTNGSVTATQKVFI | 0.254
32 | HMNYIEWKNTFKKYLYLLPIKEEKETLAYFDEQYNKLNPKDLDNVENIFSDPIDKAAFVVAFYLEMEDEIK | -0.802
33 | HMFLDKDTLNQLYRFGIALTGNEQDSQDVLHTAIERFLRNKPQQINQQAAYIRTIMRNYWYDELRKLKTQ | -0.0981
34 | HMETPLSAADFKIVFGEEYEIGTDANGLPKMGSRINRQLQNRFLTWASVNKRKATMSAYQDWVASDPAAQ | -0.693
35 | HMNILDPTVMKNILDKNHEEFIAIYESAPLGQKTIINSMVFDKRLNGENVDANILMYLQNKTNIDYINIEP | -1.47
36 | HMSSEITYDKFIEMVDKDQVKEVTLQSGVLTVVPKIQKSYYQNASYKVNQMEDVDALTKRLEGTGIVFHY | 0.129
37 | HMAAFGDLLSELRRDMNMTQDELAKVLFVSPGTISNYENNIHFPDVPKLKQIAQYFGVTTDYLLG | -1
38 | HMEYTVNRLAQISGVSKRTLRYYDEIGLLRPERVNPNGYRIYGQMQVDLLQQILFYRELGLPLEEIREII | -0.639
39 | HMLPISGDDRDALDMAALILKQYDSLPILKEFANVVTKLQTVLDGVVSNSIEARRQMIQFEE | -0.48
40 | HMTYNIPEHYQTIDVKEYVRKLVSDGDSDQIGRVEMELTEFETRNLFPVLKVLIYIIDTMRK | -1.73
41 | HMVWTAGEVVERIRERVGHPATIRELMQVLTIPPEDRHRFRRRIMQLVEAGELIRIRGNRYGLAD | 0.124
42 | HMTGDIIKQERKKKNLTQIELAKKVGISRNALINYEAGTRIPPISVQLKLADVLGIDILDLK | -0.0221
43 | HMGNTTEVLVATQDVKANTKIKESMFTTERVDTASLPDNYLSADSAKDVVGYYTYIGFTKGSVISKSNIAT | 0.0364
44 | HMGLLVPELTAEENVSLAAMIAGVPRQQARSISADLLNRLGLGQMLDRRMGEMSGGQAQRVAIAPIYGKF | -0.129
45 | HMSVTIENQINTYFQTRDKISRDELVALIKKDFANWTDNTINIYVSSLQKRGIIHSLSRGMYALGN | 0.22
46 | HMGVSAGQVRGLIRNLIAGEDKSKPLSDLALERELEKREIRISRRTVAKYRAELGIPNSDQRRYLP | 0.0779
47 | HMKDYKTIFQELIQKKHKTSPIYKSYEYNDMFKAEVYVNDKSFADGIGKSKKEAETDAAKKALEKIEMA | 0.0809
48 | HMFDKVSVNNLAEAIGRLDGIYQDVLRLYYVHELPSKEIGKILNINHLTVNTRLKRAREKLFKMLKEE | -0.812
49 | HMGFKLQRYTTFVVERLKKYQDTPAAQMHDLLKEHYPDFPAVSPKTVYNYVMKIRQEHGLPAV | ≥ 0.43
50 | HMQFLKPQDVLFLLKLVVLKGPASIFPAVPESLGLSKAEVHNSAKRVRGARLLPHDSWNPLRKNLLEFL | 0.0341

Row | Sequence | soluble fraction (log2)
51 | HMRPFAMNLLEKHKADIEVWLKHPNMTNTQIKRLLEELGTSVSVSSIDRFISTSFPKLPKHT | -0.207
52 | HMTTGREGLIGAVGTVRQAIAPEGYVFVEGELWRAKSPAGPLEPGTTVRVIAIDGLTLTVMPAE | -0.564
53 | HMEDSHIYPVSFNGKMRFKLELPVSMNKKEIEEVVLQHEDAQKWLNGQNPKKVIVVPKRIINIV | 0.308
54 | HMSNWTILIIQGSAHLIDLDSKITEIDGFGSFPTKILQDYNLNEEFEIFDTNVKMVNSVQSDLQSN | -1.97
55 | HMPPTSADGIEKYLASGMIRGVGPVYAKKLVSAFGDKVFDIIEAAPHQLQEVEGIGRVRAASILAAWAEQ | -0.0654
56 | HMERRDEINSVVSRYVSAITEGKYDLAEVDETGKLRVQTEGREVLPEALSRGTLEQFYFAFRMAVGSI | -0.779
57 | HMSQRITYTEFVQMVKDDKVEKVEVGANQYNITPKSDDKTLVKMTYYTGFIKDENLLDLLNKHKVEIDGYI | 0.169
58 | HMGIAERKEKQKLEIRNAILEASRKLIVEEGFEKVTMRKIADLIEYSPTTVYLYFKDKNEILFHLHQ | -0.798
59 | HMSQAVTMLKAGRLLANSKGTGAAVRDLEPGMLLYPTGQKDGTMWEVEDEMGNKGWVNSTSMQLA | 0.395
60 | HMHLTNIPKGFTPSFDTKQWIVEEFGERYNYDNELKIFINHYRASGTTKSDWQYAFRSWLLRAKKFT | -0.448
61 | HMAVSSYSVKRYIRNMIQAEDPSAPFSDEALRLALLAHGIAVSRRVVTKYRMAMDIPSSSQRRKR | -0.12
62 | HMLTAPMPGIVTEILVKEGQRVRSGQPLMILEAMKMEHQVTAPKSGQIEKIYFSEGEKVDMGSDLLSIS | -0.0146
63 | HMEIPTEEILKQKLYYSISEVASWFKVNTSLLRYWENEFDILQPRKTRKGDRLFRVEDIKNLQLIYLL | -0.122
64 | HMSDKLTLPVQINGVFRYTIEINPSMQKDEIIDLVKNEERTAKYKQDKEIKNVIVVPGKIVNIII | 0.22
65 | HMKTVLDSLLRILDSKELDIVVLRHIVGLTLTEIAKEKDMKKGTVFWMYNRAVKKLRLESERMGL | -0.977
66 | HMGEKVIAVSGGFDPIHVGHLRMMQDAAQHGRLVVIVNSDEWLLKKKGYVFMPWEERAELIGAYDFVDE | -0.6
67 | HMKQNNYATKKELNFFVSRLISLLSYRDFFNPIEKKESMINNIEAIFTRSSLTSQELRTLHGIISNLVE | -1.27
68 | HMVGPAHIGLAVAKDQLPHWERHLTANGVEIEGRMRWDHGGESIYFRDPDAHLLELVTPGIWAN | -0.1
69 | HMEREQPFAVTEAYRGMRLDRFLQAMLPRMSRAAIQDAIDNRVRLGSGRAAKASLRPAIGDTVFFGQRI | -0.17
70 | HMISDISEIEAIIVEVLKVFPNQLQEYLDGKEKILSFFVGQVMQRTKGRANPSLVNEILKEKIKN | -0.417
71 | HMADKGTITNQQEKILKALILFPEGASIEEIQKAADLGIDKRQFQRRLNTLIESGQINRTGKSRGTKYHTI | 0.356
72 | HMQKTVLAASVYERMKERIMDQYYPPGERLNIDALAIDLAVSPTPIREALARLAAERLITFEAYKGYRVSP | -0.637
73 | HMDTVSYSTLLRDIDAKEIKQLDLVPGRREVRVQYNDGRRVTVPVFANDNQILRAAESSGTPLTVV | 0.0175
74 | HMDAEVEHLFRIIAELKEKNVAIIYISHKMDEIFRISDDITVYRDGEYIATDRAENLNVDKVIQLMVGREV | -0.538
75 | HMNPLPALLRYFRQKAGLTQQDVAAALSISRSGYANYEEGRNIPNIEQAIKLSELLNHDFLYAYTLSS | -0.749
